Source: paper PMC5693851

What was measured:
Details in all cases: glycan lost; control: wild type
[1] = non-reducing western blot of recipient cell lysates
[2] = non-reducing western blot of culture medium, HeLa/Hek293
[3] = non-reducing western blot of culture medium
[4] = conditioned medium, western blot of recipient cell lysates
[5] = immunofluorescence, endo/lysosomal (LAMP-1) vs Golgin-97 colocalisation
[6] = fluorogenic substrate assays, lysates of transfected or conditioned HeLa

| Protein | other: proteolytic processing (dimer to monomer conversion) [1] | expression_or_secretion [2] | oligomerisation [3] | other: uptake by recipient cells [4] | localisation_or_trafficking [5] | other: inhibition of intracellular peptidases [6] |
| --- | --- | --- | --- | --- | --- | --- |
| cystatin F: N6162SN115Q (protein) parent chain: MRAAGTLLAFCCLVLSTTGGPSPDTCSQDLNSRVKPGFPKTIKTNDPGVLQAARYSVEKFNNCTNDMFLFKESRITRALVQIVKGLKYMLEVEIGRTTCKKNQHLRLDDCDFQTNHTLKQTLSCYSEVWVVPWLQHFEVPVLRCH | abolishes | no change | no change | decreases | decreases | abolishes |
| cystatin F: N6162S (protein) parent chain: MRAAGTLLAFCCLVLSTTGGPSPDTCSQDLNSRVKPGFPKTIKTNDPGVLQAARYSVEKFNNCTNDMFLFKESRITRALVQIVKGLKYMLEVEIGRTTCKKNQHLRLDDCDFQTNHTLKQTLSCYSEVWVVPWLQHFEVPVLRCH | decreases | no change | no change | decreases | decreases | decreases |
